The nanobody polyreactivity screen of Harvey et al. (2022)

assay: yeast display, Sf9 membrane polyspecificity reagent, FACS + sequencing; frameworks hold sequencing errors
In short: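 Synthetic nanobody libraries on Saccharomyces cerevisiae BJ5465 were galactose-induced for 36–48 hours, stained 1 hour at 4 °C with 10% biotinylated, detergent-solubilized Sf9 membrane reagent and enriched on streptavidin microbeads. FACS then separated cells into low and high (top ~1%) gates by anti-HA (expression) and streptavidin (reagent binding) fluorescence. Genes were colony-PCR amplified, MiSeq 2 × 250 sequenced and CDR-length filtered. A clone's polyreactivity label is that of its gate of origin.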

Sequence | polyreactivity (PSR sort gate)
QVQLVESGGGLVQAGGSLRLSCAASGHTLGSYAMGWYRQAPGKERELVAAISSRGGTYYADSVKGRFTISRDNAKNTGYFLMNSLKPDDTAVYYWDAVSGSSKMYYWGQGTQVTVSS | high polyreactivity
QVQLVESGGGLVQAGGSLRLSCAASGIFDPNAMGWYRQAPGKERELVAAITSGGSTNYADSVKGRFTISRDNAKNTVYLQMNSLKPEDTAVYYCNADSYDEIKYGYWGQGTQVTVSS | low polyreactivity
QVQLVESGGGLVQAGGSLRLSCAASGIFDYYGMGWYRQAPGKERELVAAITWNGGSTYYADSVKGRLTISRDNAKNTVYVQMNSLKPEDTAVYYCATTDWYHSPGYDYRGQGTQVTVSS | low polyreactivity
QVQLVESGGGLVQAGGSLRLSCAASGIFGRNAMGWYRQAPGKERELVAAITGSGGRTYYADSVKGRFTISRDNAKNTVYLQMNSLKPEDTAVSYCAASIPSTHGYAYDYWGQGNQVTVSS | high polyreactivity
QVQLVESGGGLVQAGGSLRLSCAASGIFLGYALGWYRQAPGKERELVAAITSGDSTYYADSVKGRFTISRDNAKNTVYLQMNSLKPEDTAVYYCAKTRYSWPRVWYNYWGQGTQVTVSS | low polyreactivity
QVQLVESGGGLVQAGGSLRLSCAASGIFRGYAMGWYRQAPGKERELVAAISWGGGSTYYADSVKGRFTISRDNAKNTVYLQMNSLKPEDTAVYYCIAADFGWDYAYYYWGQGTQVTVSS | low polyreactivity
QVQLVESGGGLVQAGGSLRLSCAASGIFRQNAMGWYRQAPGKERELVAGISQSGGSTYYADSVKGRFTISRDNAKNTVYLQMNSLKPEDTSVYYCALVSIWGYDYWGQGTQVTVSS | low polyreactivity
QVQLVESGGGLVQAGGSLRLSCAASGIFRRYAMGWYRQAPGKERELVAAISSSGGSTDYADSVKGRFTISRDNAKNTVYLQMNSLKPEDTAVYYCNAYDQHGWWCYAYDYWGQGTQVTVSS | high polyreactivity
QVQLVESGGGLVQAGGSLRLSCAASGIFRRYAMGWYRQAPGKERELVAAISSSGGSTDYADSVKGRFTISRDNAKNTVYLQMNSLKPEDTAVYYCNAYDQHGWWSYAYDYWGQGTQVTVSS | high polyreactivity
QVQLVESGGGLVQAGGSLRLSCAASGIFVRYAMGWYRQAPGKEREMVAAISFSDDSTYYADSVKGRFTISRDNAKNTVYLQMNSLKPEDTAVYYCNARLERTPCLYLYGSWGQVTQVTVSS | low polyreactivity
QVQLVESGGGLVQAGGSLRLSCAASGIFVTYAMGWYRQAPGTERELVAAIRYSGDSTYYADSVKGRFTISRDNAKNTVYLQMNSLKPEETAVYYCAATKGWSRYEYWGQGTQVTVSS | low polyreactivity
QVQLVESGGGLVQAGGSLRLSCAASGIFYFYAMGWYRQAPGKERELVAAITSSGGNTTYADSVKGRFTISRDNAKNTVYLQMNSLKPEDTAVYYCNAEAYSYGFDYWGQRTQVTVSS | low polyreactivity
QVQLVESGGGLVQAGGSLRLSCAASGIICPENAMGWYRQAPGKERELVAAISKSGGRTYYADSVKGRFTISRDNAKNTVYLQMNSLKPEDTAVYYCAKVPYAYSRDRSAEDSWGQATQVTVSS | high polyreactivity
QVQLVESGGGLVQAGGSLRLSCAASGIIFAFYAMGWYRQAPGKERELVATISKSGGRTYYADSVKGRFTISRDNAKNTVYLQMNSLNPEDTAVYYCAARIQYAFGADYYWGQGTQVTVSS | low polyreactivity
QVQLVESGGGLVQAGGSLRLSCAASGIIFAGNTMGWYIQAPWKERELVAAITWSGGSTYYADSVKGRFTISRDNAKNTVYLQMNSQKPEDTAVYYCAAYYGGYGWDDKYDYWGQGTQVTVSS | low polyreactivity
QVQLVESGGGLVQAGGSLRLSCAASGIIFAQYTMGWYRQAPGKERELVAAINRNGGSTYYADSVKGRFTISRDNAKNTVYLQMNSLKPEDTAVYYCNADALGFRYDYWGQGTQVTLSS | low polyreactivity
QVQLVESGGGLVQAGGSLRLSCAASGIIFARYAMGWYRQAPGKERELVAVISGSGGSTYYADSVKGRFTISRDNAKNTVYLQMNSLKPEDTAVYYCNAEFESGHDLDWYDYWGQGTQVTVSS | low polyreactivity
